We go through one substance from patent US20110256557A1, “IDENTIFYING PARATHYROID HORMONE AGONISTS AND ANTAGONISTS” (DISCOVERYBIOMED, INC., priority 2008, published 2011).

Holding throughout (format): cell-based
For one assay, the target named is T1, PTH1R (Homo sapiens, UniProt Q03431).
T1 sequence (Q03431 27-593): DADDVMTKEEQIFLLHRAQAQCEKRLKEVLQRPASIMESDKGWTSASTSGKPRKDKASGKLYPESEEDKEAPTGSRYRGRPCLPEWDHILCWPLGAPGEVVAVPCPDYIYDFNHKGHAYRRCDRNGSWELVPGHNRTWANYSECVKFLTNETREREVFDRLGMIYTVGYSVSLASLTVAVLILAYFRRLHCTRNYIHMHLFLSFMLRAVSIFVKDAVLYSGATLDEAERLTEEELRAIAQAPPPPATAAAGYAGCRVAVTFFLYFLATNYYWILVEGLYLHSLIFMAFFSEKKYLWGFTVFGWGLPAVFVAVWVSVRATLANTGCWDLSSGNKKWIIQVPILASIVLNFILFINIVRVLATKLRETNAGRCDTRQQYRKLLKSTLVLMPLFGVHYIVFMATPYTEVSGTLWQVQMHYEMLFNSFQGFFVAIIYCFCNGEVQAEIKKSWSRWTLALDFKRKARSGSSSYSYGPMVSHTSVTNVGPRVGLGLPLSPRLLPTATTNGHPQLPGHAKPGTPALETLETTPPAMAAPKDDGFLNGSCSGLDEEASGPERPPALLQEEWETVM
The assay can be described thus: Co-immunoprecipitation of exogenous LRP5/LRP6 constructs with PTH1R in HEK293 cells. The following applies: HEK293 cells. The text has this: PTH1R tagged with HA was subcloned into pcDNA3.1. cDNAs from human LRP5 (Mao et al., Mol. Cell. 7:801-9 (2001)) and LRP6 (Tamai et al., Nature 407:530-35 (2000)) tagged with HA and VSVG were subcloned into pCMV and pCS2^+, respectively. LRP6N+T (LRP6 N-terminal plus the transmembrane domain) and LRP6T+C (LRP6 transmembrane domain plus C-terminal) tagged with VSVG were subcloned into pCS2^+. LRP6N+1479m, LRP6N+1490m, LRP6N+1493m and LRP6N+1496m were generated by mutagenesis of either the serine (at amino acid 1490 or amino acid 1496) or threonine (at amino acid 1479 or amino acid 1493) to alanine LRP6N-IgG was generated by fusing the LRP6 extracellular domain with IgG (Tamai et al., Nature 407:530-35 (2000)). si-GFP (Wan et al., Am. J. Pathol. 166:1379-92 (2005)) and si-LRP6 plasmids were generated using a BS/U6 vector. Briefly, a 22-nucleotide oligo (oligo 1) corresponding to nucleotides 2981 to 3002 of the human LRP6 coding region was first inserted into the BS/U6 vector digested with ApaI (blunted) and HindIII. The inverted motif that contains the six-nucleotide spacer and five Ts (oligo 2) was then subcloned into the HindIII and EcoRI sites of the intermediate plasmid to generate BS/U6/LRP5/6.
(§1) Cells were harvested in cavitation buffer (5 mM HEPES, pH 7.4, 3 mM MgCl2, 1 mM EGTA, 250 mM sucrose) containing protease and phosphatase inhibitors and homogenized by nitrogen cavitation (200 p.s.i., for 5 minutes) in a cell disruption bomb (Parr Instrument Co.; Moline, Ill.). The cell homogenate was centrifuged twice at 700 g for 10 minutes to pellet the nuclei. The supernatant was further centrifuged at 100,000 g (Beckman SW50.1 rotor) for 1 hour to separate the membrane and cytosol fractions, and the resulting membrane pellet was washed three times with cavitation buffer before use in the assays (Zhang et al., Biochem. J. 343:541-9 (1999)). Immunoprecipitation and Western blot analysis of cell lysates were performed as described previously (Wan et al., Am. J. Pathol. 166:1379-92 (2005)).

Another assay concerns β-catenin. The assay can be described thus: Western blot of cytosolic β-catenin in mouse calvarial primary preosteoblasts. The settings on record: concentration- and time-dependent. On the procedure: (§2) Osteoblasts were isolated by digestion of calvaria of newborn mice as described (Wang et al., J. Clin. Invest. 117:1616-26 (2007)). Briefly, calvaria were incubated with 10 ml of digestion solution containing 1.8 mg/ml of collagenase type I (Worthington Biochemical Corp.; Lakewood, N.J.) for 15 minutes at 37° C. under constant agitation. The supernatant was then harvested, replaced with fresh collagenase and the digestion repeated an additional 4 times. Digestion solutions containing the osteoblasts were pooled together. After centrifugation, osteoblasts were obtained and cultured in α-Minimal Essential Media (MEM) containing 10% FBS and 1% penicillin/streptomycin at 37° C. in a humidified incubator supplied with 5% CO2.
as §1, with “Immunoprecipitation and Western blot analysis of cell lysates were performed as described previously (Wan et al., Am. J. Pathol. 166:1379-92 (2005)).” left out

The next assay has as its system axin1. The assay can be described thus: Axin1 recruitment to cell membrane, cell fractionation assay in mouse primary preosteoblasts. On the procedure: as §2
as §1, with “Immunoprecipitation and Western blot analysis of cell lysates were performed as described previously (Wan et al., Am. J. Pathol. 166:1379-92 (2005)).” left out

A further assay addresses T2, CFP-PTH1R and YFP-LRP6 (Homo sapiens, UniProt Q03431).
T2 construct: expressed in transfected cells; host or cells: HEK293
T2 sequence (Q03431 27-593): T1 sequence (Q03431 27-593)
The experiment in a line: Photobleaching-based FRET of CFP-PTH1R and YFP-LRP6 in HEK293 cells. An excerpt:
PTH1R and BMPRII cDNAs were cloned into ECFP-N1, and LRP6 and mLRP4T100 cDNAs were cloned into EYFP—N1 (Clonetech; Palo Alto, Calif.) expression vectors. These vectors were modified by site-directed mutagenesis that prevents the self-dimerization (Bhatia et al., Proc. Natl. Acad. Sci. USA 102:15569-74 (2005)). CFP and YFP were fused at the C-termini of the receptors. Because CFP-PTH1R or CFP-BMPRII (the fluorescent FRET donors) is quenched when in the proximity of YFP-LRP6 or YFP-mLRP4T100 (the acceptors), FRET efficiency can be measured by comparing donor fluorescence pre- and post-photobleaching of the acceptor. […] HEK293 cells on coverslips in 35 mm dishes were cotransfected with 0.1 μg of each plasmid. Cells were observed using Leica TCS SP II AOBS laser-scanning confocal microscope. An excitation wavelength of 405 nm and an emission range of 416-492 nm, and an excitation wavelength of 514 nm and an emission range of 525-600 nm were used to acquire images of CFP and YFP, respectively. YFP was photobleached by using full power of the 514 nm line for 1-2 minutes. An image of CFP and YFP fluorescence after photobleaching was obtained by using the respective filter sets. Images were representatives of three experiments. The FRET efficiencies were calculated according to: FRET eff %=[(Donorpost−Donorpre)/(Donorpost)]

Regarding Parathyroid hormone [PTH], the “binding of exogenous PTH1R to exogenous LRP6” value with PTH1R was “enhances”. Further, the “binding of LRP5 to PTH1R” value with PTH1R (exogenous LRP5 and PTH1R) is “did not enhance”. In addition, the “levels of β-catenin in the cytosol” value with β-catenin was “enhanced”. Further, the “axin1 level on cell membrane” value with axin1 is recorded as “increased”. For the same substance, in the assay with CFP-PTH1R and YFP-LRP6, the “FRET efficiency between CFP-PTH1R and YFP-LRP6” value is reported as “increased”; the “FRET efficiency in control pairs YFP-LRP6/CFP-BMPRII and CFP-PTH1R/YFP-mLRP4T100” value is “did not enhance the FRET efficiency”.
